Data as given in patent publication US20180360932A1 (OPKO BIOLOGICS, published 2018).
One block for each molecule: values may come before it.

Key:
[1] = molecular target: MOD-5014 (FVIIa-CTP3, activated Factor VII-CTP-CTP-CTP) (human) (UniProt P08709); assay: cell-based or functional assay
[2] = molecular target: NovoSeven (commercial recombinant human FVIIa) (human) (UniProt P08709); assay: cell-based or functional assay
[3] = molecular target: Recombinant human FVIIa (NovoSeven) (human) (UniProt P08709); assay: cell-based or functional assay
[4] = molecular target: T1, Tissue factor (TF), P13726
T1 chain: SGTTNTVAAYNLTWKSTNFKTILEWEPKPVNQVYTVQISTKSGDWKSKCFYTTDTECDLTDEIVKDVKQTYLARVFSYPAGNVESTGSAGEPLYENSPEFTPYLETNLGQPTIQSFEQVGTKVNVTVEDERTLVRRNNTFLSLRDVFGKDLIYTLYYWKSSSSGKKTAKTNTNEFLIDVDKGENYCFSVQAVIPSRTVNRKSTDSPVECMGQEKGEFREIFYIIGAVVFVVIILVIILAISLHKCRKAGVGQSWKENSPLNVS

Sequence of Factor X (FX), P00742 (P00742 whole entry, looked up): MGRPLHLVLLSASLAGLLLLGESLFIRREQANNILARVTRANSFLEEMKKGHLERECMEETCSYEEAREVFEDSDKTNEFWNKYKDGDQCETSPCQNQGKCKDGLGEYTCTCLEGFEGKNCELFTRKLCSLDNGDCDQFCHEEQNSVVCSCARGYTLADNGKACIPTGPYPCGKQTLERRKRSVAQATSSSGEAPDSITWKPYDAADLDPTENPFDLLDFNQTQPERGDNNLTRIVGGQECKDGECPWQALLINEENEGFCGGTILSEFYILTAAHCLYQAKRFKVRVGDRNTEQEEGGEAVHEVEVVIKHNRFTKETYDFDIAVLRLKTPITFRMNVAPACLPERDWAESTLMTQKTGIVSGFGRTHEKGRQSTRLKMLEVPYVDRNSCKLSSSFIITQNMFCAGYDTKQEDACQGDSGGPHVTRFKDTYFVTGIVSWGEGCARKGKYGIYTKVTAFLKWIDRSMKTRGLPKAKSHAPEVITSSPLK

B1: MOD-5014 (FVIIa-CTP3, activated Factor VII-CTP-CTP-CTP) (protein)
chain 1: ANAFLEELRPGSLERECKEEQCSFEEAREIFKDAERTKLFWISYSDGDQCASSPCQNGGSCKDQLQSYICFCLPAFEGRNCETHKDDQLICVNENGGCEQYCSDHTGTKRSCRCHEGYSLLADGVSCTPTVEYPCGKIPILEKRNASKPQGR
chain 2: IVGGKVCPKGECPWQVLLLVNGAQLCGGTLINTIWVVSAAHCFDKIKNWRNLIAVLGEHDLSEHDGDEQSRRVAQVIIPSTYVPGTTNHDIALLRLHQPVVLTDHVVPLCLPERTFSERTLAFVRFSLVSGWGQLLDRGATALELMVLNVPRLMTQDCLQQSRKVGDSPNITEYMFCAGYSDGSKDSCKGDSGGPHATHYRGTWYLTGIVSWGQGCATVGHFGVYTRVSQYIEWLQKLMRSEPRPGVLLRAPFPSSSSKAPPPSLPSPSRLPGPSDTPILPQSSSSKAPPPSLPSPSRLPGPSDTPILPQSSSSKAPPPSLPSPSRLPGPSDTPILPQ
Vmax (rate of FX activation at saturation of TF with FVIIa) [4]: 1.3 nM FXa/min
k2 (rate of Pefachrome FVIIa substrate cleavage by the VIIa/TF complex) (mol pNA/min/mol VIIa/TF) [4]: 357
Vmax (rate of FX activation by lipid-bound FVIIa in the absence of TF) (Factor X (FX), P00742): 0.115 nM FXa/min

B2: MOD-5000 (NovoSeven, commercial recombinant hFVIIa) (protein)
chain 1: B1 chain 1
chain 2: IVGGKVCPKGECPWQVLLLVNGAQLCGGTLINTIWVVSAAHCFDKIKNWRNLIAVLGEHDLSEHDGDEQSRRVAQVIIPSTYVPGTTNHDIALLRLHQPVVLTDHVVPLCLPERTFSERTLAFVRFSLVSGWGQLLDRGATALELMVLNVPRLMTQDCLQQSRKVGDSPNITEYMFCAGYSDGSKDSCKGDSGGPHATHYRGTWYLTGIVSWGQGCATVGHFGVYTRVSQYIEWLQKLMRSEPRPGVLLRAPFP
Vmax (rate of FX activation by lipid-bound FVIIa in the absence of TF) (Factor X (FX), P00742): 0.253 nM FXa/min

Next, values leading:

% Inhibition of clotting activity, TFPI 0.625 ng/mL [1]: 15%
% Inhibition of clotting activity, TFPI 6.25 ng/mL [1]: 15%
% Inhibition of clotting activity, TFPI 62.5 ng/mL [1]: 29%
% Inhibition of clotting activity, TFPI 625 ng/mL [1]: 80%
% Inhibition of clotting activity, TFPI 1250 ng/mL [1]: 89%
Activity (mU/mL), clotting assay, TFPI 0 ng/mL (no inhibitor) [1]: 66.8 mU/mL
Activity (mU/mL), clotting assay, TFPI 0.625 ng/mL [1]: 56.7 mU/mL
Activity (mU/mL), clotting assay, TFPI 6.25 ng/mL [1]: 56.7 mU/mL
Activity (mU/mL), clotting assay, TFPI 62.5 ng/mL [1]: 47.4 mU/mL
Activity (mU/mL), clotting assay, TFPI 625 ng/mL [1]: 13.2 mU/mL
Activity (mU/mL), clotting assay, TFPI 1250 ng/mL [1]: 7.3 mU/mL
FX activation by MOD-5014 (0.7 ng/ml) + 1 U/µl heparin, TFPI 0.002048 ng/ml [1]: 1.27
FX activation by MOD-5014 (0.7 ng/ml) + 1 U/µl heparin, TFPI 0.010240 ng/ml [1]: 1.29
FX activation by MOD-5014 (0.7 ng/ml) + 1 U/µl heparin, TFPI 0.051200 ng/ml [1]: 1.35
FX activation by MOD-5014 (0.7 ng/ml) + 1 U/µl heparin, TFPI 1.28 ng/ml [1]: 1.26
FX activation by MOD-5014 (0.7 ng/ml) + 1 U/µl heparin, TFPI 6.40 ng/ml [1]: 1.16
FX activation by MOD-5014 (0.7 ng/ml) + 1 U/µl heparin, TFPI 32.00 ng/ml [1]: 0.915
FX activation by MOD-5014 (0.7 ng/ml) + 1 U/µl heparin, TFPI 160.00 ng/ml [1]: 0.539
FX activation by MOD-5014 (0.7 ng/ml) + 1 U/µl heparin, TFPI 800.00 ng/ml [1]: 0.32
FX activation by MOD-5014 (0.7 ng/ml) + 1 U/µl heparin, TFPI 4000.00 ng/ml [1]: 0.115
FX activation by MOD-5014 (0.7 ng/ml) + 1 U/µl heparin, TFPI 20000.00 ng/ml [1]: 0.15
FX activation by MOD-5014 (0.7 ng/ml), Control [1]: 1.37
FX activation by MOD-5014 (4 ng/ml), Control (no TFPI) [1]: 1.58
FX activation by MOD-5014 (4 ng/ml), TFPI 0.002048 ng/ml [1]: 1.65
FX activation by MOD-5014 (4 ng/ml), TFPI 0.010240 ng/ml [1]: 1.64
FX activation by MOD-5014 (4 ng/ml), TFPI 0.051200 ng/ml [1]: 1.6
FX activation by MOD-5014 (4 ng/ml), TFPI 0.2560 ng/ml [1]: 1.62
FX activation by MOD-5014 (4 ng/ml), TFPI 1.28 ng/ml [1]: 1.56
FX activation by MOD-5014 (4 ng/ml), TFPI 6.40 ng/ml [1]: 1.54
FX activation by MOD-5014 (4 ng/ml), TFPI 32.00 ng/ml [1]: 1.47
FX activation by MOD-5014 (4 ng/ml), TFPI 160.00 ng/ml [1]: 1.14
FX activation by MOD-5014 (4 ng/ml), TFPI 800.00 ng/ml [1]: 0.836
FX activation by MOD-5014 (4 ng/ml), TFPI 4000.00 ng/ml [1]: 0.38
FX activation by MOD-5014 (4 ng/ml), TFPI 20000.00 ng/ml [1]: 0.17
O.D, FX activation by MOD-5014 (0.69 ng/ml), Control (no TFPI) [1]: 1.51 O.D
O.D, FX activation by MOD-5014 (0.69 ng/ml), TFPI 0.002048 ng/ml [1]: 1.48 O.D
O.D, FX activation by MOD-5014 (0.69 ng/ml), TFPI 0.010240 ng/ml [1]: 1.45 O.D
O.D, FX activation by MOD-5014 (0.69 ng/ml), TFPI 0.051200 ng/ml [1]: 1.45 O.D
O.D, FX activation by MOD-5014 (0.69 ng/ml), TFPI 0.2560 ng/ml [1]: 1.46 O.D
O.D, FX activation by MOD-5014 (0.69 ng/ml), TFPI 1.28 ng/ml [1]: 1.39 O.D
O.D, FX activation by MOD-5014 (0.69 ng/ml), TFPI 6.40 ng/ml [1]: 1.38 O.D
O.D, FX activation by MOD-5014 (0.69 ng/ml), TFPI 32.00 ng/ml [1]: 1.36 O.D
O.D, FX activation by MOD-5014 (0.69 ng/ml), TFPI 160.00 ng/ml [1]: 1.11 O.D
O.D, FX activation by MOD-5014 (0.69 ng/ml), TFPI 800.00 ng/ml [1]: 1.01 O.D
O.D, FX activation by MOD-5014 (0.69 ng/ml), TFPI 4000.00 ng/ml [1]: 0.691 O.D
O.D, FX activation by MOD-5014 (0.69 ng/ml), TFPI 20000.00 ng/ml [1]: 0.346 O.D
% Inhibition of clotting activity, TFPI 0.625 ng/mL [2]: 25%
% Inhibition of clotting activity, TFPI 6.25 ng/mL [2]: 24%
% Inhibition of clotting activity, TFPI 62.5 ng/mL [2]: 38%
% Inhibition of clotting activity, TFPI 625 ng/mL [2]: 87%
% Inhibition of clotting activity, TFPI 1250 ng/mL [2]: 96%
Activity (mU/mL), clotting assay, TFPI 0 ng/mL (no inhibitor) [2]: 72.3 mU/mL
Activity (mU/mL), clotting assay, TFPI 0.625 ng/mL [2]: 54.5 mU/mL
Activity (mU/mL), clotting assay, TFPI 6.25 ng/mL [2]: 55.3 mU/mL
Activity (mU/mL), clotting assay, TFPI 62.5 ng/mL [2]: 45 mU/mL
Activity (mU/mL), clotting assay, TFPI 625 ng/mL [2]: 9.5 mU/mL
Activity (mU/mL), clotting assay, TFPI 1250 ng/mL [2]: 2.9 mU/mL
FX activation by NovoSeven (0.7 ng/ml) + 1 U/µl heparin, TFPI 0.002048 ng/ml [2]: 1.33
FX activation by NovoSeven (0.7 ng/ml) + 1 U/µl heparin, TFPI 0.010240 ng/ml [2]: 1.3
FX activation by NovoSeven (0.7 ng/ml) + 1 U/µl heparin, TFPI 0.051200 ng/ml [2]: 1.37
FX activation by NovoSeven (0.7 ng/ml) + 1 U/µl heparin, TFPI 1.28 ng/ml [2]: 1.31
FX activation by NovoSeven (0.7 ng/ml) + 1 U/µl heparin, TFPI 6.40 ng/ml [2]: 1.21
FX activation by NovoSeven (0.7 ng/ml) + 1 U/µl heparin, TFPI 32.00 ng/ml [2]: 1.01
FX activation by NovoSeven (0.7 ng/ml) + 1 U/µl heparin, TFPI 160.00 ng/ml [2]: 0.764
FX activation by NovoSeven (0.7 ng/ml) + 1 U/µl heparin, TFPI 800.00 ng/ml [2]: 0.409
FX activation by NovoSeven (0.7 ng/ml) + 1 U/µl heparin, TFPI 4000.00 ng/ml [2]: 0.241
FX activation by NovoSeven (0.7 ng/ml) + 1 U/µl heparin, TFPI 20000.00 ng/ml [2]: 0.222
FX activation by NovoSeven (0.7 ng/ml), Control [2]: 1.47
FX activation by NovoSeven (4 ng/ml), Control (no TFPI) [2]: 1.66
FX activation by NovoSeven (4 ng/ml), TFPI 0.002048 ng/ml [2]: 1.72
FX activation by NovoSeven (4 ng/ml), TFPI 0.010240 ng/ml [2]: 1.7
FX activation by NovoSeven (4 ng/ml), TFPI 0.051200 ng/ml [2]: 1.73
FX activation by NovoSeven (4 ng/ml), TFPI 0.2560 ng/ml [2]: 1.7
FX activation by NovoSeven (4 ng/ml), TFPI 1.28 ng/ml [2]: 1.66
FX activation by NovoSeven (4 ng/ml), TFPI 6.40 ng/ml [2]: 1.59
FX activation by NovoSeven (4 ng/ml), TFPI 32.00 ng/ml [2]: 1.5
FX activation by NovoSeven (4 ng/ml), TFPI 160.00 ng/ml [2]: 1.34
FX activation by NovoSeven (4 ng/ml), TFPI 800.00 ng/ml [2]: 1.02
FX activation by NovoSeven (4 ng/ml), TFPI 4000.00 ng/ml [2]: 0.406
FX activation by NovoSeven (4 ng/ml), TFPI 20000.00 ng/ml [2]: 0.206
O.D, FX activation by NovoSeven (0.64 ng/ml), Control (no TFPI) [2]: 1.51 O.D
O.D, FX activation by NovoSeven (0.64 ng/ml), TFPI 0.002048 ng/ml [2]: 1.5 O.D
O.D, FX activation by NovoSeven (0.64 ng/ml), TFPI 0.010240 ng/ml [2]: 1.51 O.D
O.D, FX activation by NovoSeven (0.64 ng/ml), TFPI 0.051200 ng/ml [2]: 1.52 O.D
O.D, FX activation by NovoSeven (0.64 ng/ml), TFPI 0.2560 ng/ml [2]: 1.43 O.D
O.D, FX activation by NovoSeven (0.64 ng/ml), TFPI 1.28 ng/ml [2]: 1.47 O.D
O.D, FX activation by NovoSeven (0.64 ng/ml), TFPI 6.40 ng/ml [2]: 1.42 O.D
O.D, FX activation by NovoSeven (0.64 ng/ml), TFPI 32.00 ng/ml [2]: 1.38 O.D
O.D, FX activation by NovoSeven (0.64 ng/ml), TFPI 160.00 ng/ml [2]: 1.34 O.D
O.D, FX activation by NovoSeven (0.64 ng/ml), TFPI 800.00 ng/ml [2]: 1.04 O.D
O.D, FX activation by NovoSeven (0.64 ng/ml), TFPI 4000.00 ng/ml [2]: 0.83 O.D
O.D, FX activation by NovoSeven (0.64 ng/ml), TFPI 20000.00 ng/ml [2]: 0.429 O.D
Molecule: Tissue Factor Pathway Inhibitor (TFPI) (from UniProt P10646 29-304)

IC50 of anti-thrombin on FX activation (chromogenic), 0.7 ng/ml FVIIa, 1 U/µl heparin [3]: 65.7 µg/mL
IC50 of anti-thrombin on FX activation (chromogenic), 0.7 ng/ml FVIIa, 1 U/µl heparin [1]: 49.6 µg/mL
Molecule: Anti-thrombin III (AT III) (from UniProt P01008 33-464)
